This passage reports Kd, fold higher KD than NCOA2 (1074–1089) and other: signal change in % results from paper PMC10499821.

In general, Kd refers to the free concentration of one partner at which half of the binding sites on the other are occupied at equilibrium, for simple one-to-one binding.

The target in one assay is FITC-DYRK1B_(394–409) (human) (UniProt Q9Y463). Put plainly: fluorescence polarisation.
Settings: not given
(In fluorescence polarisation assays a small probe gives low polarisation when free and higher when bound to something large.)
In turn, “Nsp16 (from UniProt P0DTD1 6799-7096) (enzyme)” registered a Kd of 3000 nM.

Another assay addresses Nsp3 Ubl1 (SARS-CoV-2) (UniProt P0DTD1). The assay is described as follows: fluorescence polarisation.
Settings: not given
In turn, “N_(216–231) peptide (from UniProt P0DTC9 216-231)” showed a fold higher KD than NCOA2 (1074–1089) of 2 fold.

A further assay concerns the target GST-tagged Nsp3 Ubl1 (UniProt P0DTD1). The assay is described as follows: SPOT array alanine scan. The following applies: parent: est. 0; read off a plot.
With “NCOA2_(1074–1089) on the SPOT array Y1084A”, the other: signal change in % was -62%.

As for “NCOA2_(1074–1089) on the SPOT array N1089A”, the other: signal change in % was -25%.

For the substance “NCOA2_(1074–1089) on the SPOT array S1074A”, the other: signal change in % stood at 0%.

Consider “NCOA2_(1074–1089) on the SPOT array G1077A”, for which the other: signal change in % is -5%.

Take “NCOA2_(1074–1089) on the SPOT array Q1082A”: the other: signal change in % was -45%.

In the case of “NCOA2_(1074–1089) on the SPOT array L1079A”, the other: signal change in % was -10%.

Regarding “NCOA2_(1074–1089) on the SPOT array E1076A”, the other: signal change in % is -40%.

On to “NCOA2_(1074–1089) on the SPOT array L1085A”, for which the other: signal change in % is -50%.

For “NCOA2_(1074–1089) on the SPOT array L1080A”, the other: signal change in % was -85%.

“NCOA2_(1074–1089) on the SPOT array R1088A”: the other: signal change in % was -30%.

Take “NCOA2_(1074–1089) on the SPOT array L1083A”: the other: signal change in % was -35%.

For “NCOA2_(1074–1089) on the SPOT array L1087A”, the other: signal change in % was -40%.

As for “NCOA2_(1074–1089) on the SPOT array D1081A”, the other: signal change in % was -20%.

Regarding “NCOA2_(1074–1089) on the SPOT array D1075A”, the other: signal change in % is -5%.

The target of another assay is GST-tagged Nsp3 ADRP (UniProt P0DTD1). The assay is described as follows: SPOT array alanine scan. The following applies: parent: est. -10; read off a plot.
With MBOAT1_(16–31) on the SPOT array S24A, the other: signal change in % was -90%.

Consider MBOAT1_(16–31) on the SPOT array L27A, for which the other: signal change in % was -20%.

As to MBOAT1_(16–31) on the SPOT array P22A, the other: signal change in % was -70%.

As to MBOAT1_(16–31) on the SPOT array T18A, the other: signal change in % came out at 10%.

Consider MBOAT1_(16–31) on the SPOT array L23A, for which the other: signal change in % is -100%.

In the case of MBOAT1_(16–31) on the SPOT array P30A, the other: signal change in % is -45%.

MBOAT1_(16–31) on the SPOT array I29A: the other: signal change in % was -5%.

As to MBOAT1_(16–31) on the SPOT array L31A, the other: signal change in % was -25%.

For MBOAT1_(16–31) on the SPOT array L20A, the other: signal change in % is -5%.

Take MBOAT1_(16–31) on the SPOT array Y19A: the other: signal change in % stood at 30%.

On to MBOAT1_(16–31) on the SPOT array S17A, for which the other: signal change in % was -25%.

In the case of MBOAT1_(16–31) on the SPOT array H21A, the other: signal change in % was -55%.

As to MBOAT1_(16–31) on the SPOT array G16A, the other: signal change in % was -15%.

Regarding MBOAT1_(16–31) on the SPOT array L26A, the other: signal change in % was -45%.

MBOAT1_(16–31) on the SPOT array G28A: the other: signal change in % was -50%.

MBOAT1_(16–31) on the SPOT array E25A: the other: signal change in % is -100%.

The next assay has as its target GST-tagged Nsp16 (UniProt P0DTD1). The assay is described as follows: SPOT array alanine scan. The following applies: parent: est. 0; read off a plot.
On to ICA1L_(450–465) on the SPOT array W5A, for which the other: signal change in % was -100%.

Take ICA1L_(450–465) on the SPOT array F6A: the other: signal change in % was -50%.

On to ICA1L_(450–465) on the SPOT array D1A, for which the other: signal change in % is -25%.

Consider ICA1L_(450–465) on the SPOT array S16A, for which the other: signal change in % is -10%.

With ICA1L_(450–465) on the SPOT array L8A, the other: signal change in % was -35%.

ICA1L_(450–465) on the SPOT array L15A: the other: signal change in % is -20%.

Regarding ICA1L_(450–465) on the SPOT array P14A, the other: signal change in % was -22%.

ICA1L_(450–465) on the SPOT array M2A: the other: signal change in % is -57%.

Turning to ICA1L_(450–465) on the SPOT array L12A, the other: signal change in % was -20%.

In the case of ICA1L_(450–465) on the SPOT array S3A, the other: signal change in % was -57%.

In the case of ICA1L_(450–465) on the SPOT array F9A, the other: signal change in % was -88%.

As for ICA1L_(450–465) on the SPOT array N7A, the other: signal change in % is -48%.

Regarding ICA1L_(450–465) on the SPOT array D11A, the other: signal change in % is -10%.
